Bounds are passed on as bounds.

Broadly, the Kd is the constant that tells how readily two partners part at equilibrium.

The subject of assay [1] is human epidermal growth factor receptor (EGFR). Kind of assay: Biacore SPR binding kinetics of anti-EGFR scFv-Fc clones with or without 10 µM MTX. The settings on record: 37° C.; for koff, kinetics toward antigen with 0 µM MTX / kon, kinetics toward antigen with 0 µM MTX / koff, kinetics toward antigen with 10 µM MTX / kon, kinetics toward antigen with 10 µM MTX: pH 7.4, scFv-Fc; for Kd / koff, kinetics toward antigen with 10 µM MTX / kon, kinetics toward antigen with 10 µM MTX: 10 µM MTX; for Kd: pH 7.4, koff/kon, or estimated from binding response / limit of detection for weak interactions, read-out: KD, kinetics toward antigen with 10 µM MTX. As for the experimental part: All binding kinetics analysis was performed on label-free Biacore surface plasmon biosensors (Biacore T200™ from GE Life Sciences) at 37° C. in 10 mM Hepes pH 7.4, 150 mM NaCl, 0.05% Tween-20 (HBST+), with or without 10 µM MTX. The Biacore data were processed in Biacore T200 Evaluation Software, and the data were double-referenced (Myszka, 1999, J Mol Recognit 12(5):279-284) and fit globally to a simple Langmuir with mass transport model to determine the equilibrium dissociation constant, KD, from the ratio of the kinetic rate constants (KD = koff/kon). In some cases the binding of antigen was very low (or not detectable) in the presence of 10 µM MTX and as a result kinetic rate constants could not be accurately determined. In these cases, a KD (or KD limit) was estimated based on the binding response at the highest analyte concentration tested or based on the typical limit of detection for a Biacore T200. […]

The subject of the next assay is human CD33. Kind of assay: Biacore SPR binding kinetics of anti-CD33 scFv-Fc clones with or without 10 µM MTX. The settings on record: CD33, 37° C., pH 7.4. The source says:
The first 4 rounds of panning used biotinylated CD33 antigen captured on streptavidin or neutravidin coated 96-well plates. […] 1536 clones were randomly chosen from the 4th and 5th round of panning against the CD33 antigen and their binding specificity determined by phage ELISA. Clones that specifically bound to CD33 were sequenced and all unique clones were subjected to a phage competition ELISA to assess their relative affinities to CD33 and sensitivity to MTX by measuring their binding strengths in the presence or absence of 10 µM (micromolar) MTX (i.e. in 0 or 10 µM MTX).
All binding kinetics analysis was performed on label-free Biacore surface plasmon biosensors (Biacore T200™ from GE Life Sciences) at 37° C. in 10 mM Hepes pH 7.4, 150 mM NaCl, 0.05% Tween-20 (HBST+), with or without 10 µM MTX. The Biacore data were processed in Biacore T200 Evaluation Software, and the data were double-referenced (Myszka, 1999, J Mol Recognit 12(5):279-284) and fit globally to a simple Langmuir with mass transport model to determine the equilibrium dissociation constant, KD, from the ratio of the kinetic rate constants (KD = koff/kon). In some cases the binding of antigen was very low (or not detectable) in the presence of 10 µM MTX and as a result kinetic rate constants could not be accurately determined. In these cases, a KD (or KD limit) was estimated based on the binding response at the highest analyte concentration tested or based on the typical limit of detection for a Biacore T200.
(In general: Surface plasmon resonance follows binding to a sensor surface in real time, without labels.)

B1: P07_H08: anti-EGFR clone with conditional affinity; VH SEQ ID NO: 121, VL SEQ ID NO: 122; also as scFv in CAR (antibody, V domains shown)
VH: QVQLVESGGGLVQAGGSLRLSCAASRRSSRSWAMHWVRQAPGKGLEWVAVISYDGRLKYYADSVKGRFTISRDNAEYLVYLQMNSLRAEDTAVYYCAAGFDWGWDSSDIYSAMDYWGQGTLVTVSS
VL: DIQMTQSPSSLSASVGDRVTITCRASQNIGRYLHWYQQKPGKAPKLLIYSASNLQSGVPSRFSGSGSGTDFTLTISSLQPEDFATYYCQQSYSSPFTFGQGTKVEIK
modifications: Synthetic Antibody
notes: also as scFv in CAR
For the molecule B1, in assay [1], the “koff, kinetics toward antigen with 0 µM MTX” value (“koff … with 0 µM MTX” below) came out at 0.27 s⁻¹; the “kon, kinetics toward antigen with 0 µM MTX” value (from here on “kon … with 0 µM MTX”) amounted to 330000 M⁻¹ s⁻¹; the Kd was greater than 9.37 µM.

B2: P14_E03: anti-EGFR clone with conditional affinity; VH SEQ ID NO: 125, VL SEQ ID NO: 126 (antibody, V domains shown)
VH: QVQLVESGGGLVQAGGSLRLSCAASRRSSRSWAMHWVRQAPGKGLEWVAVISYDGRLKYYADSVKGRFTISRDNAEYLVYLQMNSLRAEDTAVYYCAAAPRVDWSDVSSGIDYWGQGTLVTVSS
VL: QSVLTQPPSASGTPGQRVTISCSGSISNIGTNNVYWYQQLPGTAPKLLIYRNNQRPSGVPDRFSGSKSGTSASLAISGLRSEDEADYYCSAWDDSLSGVVFGTGTKLTVL
modifications: Synthetic Antibody
B2: in assay [1], the “koff … with 0 µM MTX” value amounted to 0.00067 s⁻¹; the “kon … with 0 µM MTX” value amounted to 110000 M⁻¹ s⁻¹; the “koff, kinetics toward antigen with 10 µM MTX” value (from here on “koff … with 10 µM MTX”) was found to be 0.00072 s⁻¹; the “kon, kinetics toward antigen with 10 µM MTX” value (“kon … with 10 µM MTX” below) is 29000 M⁻¹ s⁻¹.

B3: P01_B06: anti-EGFR reference clone, less than 2-fold MTX effect; VH SEQ ID NO: 129, VL SEQ ID NO: 130 (antibody, V domains shown)
VH: QVQLVESGGGLVQAGGSLRLSCAASRRSSRSWAMHWVRQAPGKGLEWVAVISYDGRLKYYADSVKGRFTISRDNAEYLVYLQMNSLRAEDTAVYYCAADTSMFASYDPMDVWGQGTLVTVSS
VL: QSVLTQPPSASGTPGQRVTISCSGSSSNIGRNYVNWYQQLPGTAPKLLIYRDDHRPSGVPDRFSGSKSGTSASLAISGLRSEDEADYYCASWDDTLSGWVFGTGTKLTVL
modifications: Synthetic Antibody
In the case of B3, in assay [1], the “koff … with 0 µM MTX” value is 0.024 s⁻¹; the “kon … with 0 µM MTX” value turned out to be 100000 M⁻¹ s⁻¹; the “koff … with 10 µM MTX” value was 0.026 s⁻¹; the “kon … with 10 µM MTX” value came to 100000 M⁻¹ s⁻¹.

B4: P01_F02: anti-EGFR clone with conditional affinity; VH SEQ ID NO: 119, VL SEQ ID NO: 120; also as scFv in CAR (antibody, V domains shown)
VH: QVQLVESGGGLVQAGGSLRLSCAASRRSSRSWAMHWVRQAPGKGLEWVAVISYDGRLKYYADSVKGRFTISRDNAEYLVYLQMNSLRAEDTAVYYCAADVESALAYGEPYHHMDVWGQGTLVTVSS
VL: QSVLTQPPSASGTPGQRVTISCSGSSSNIGRNYVYWYQQLPGTAPKLLIYRTSQRPSGVPDRFSGSKSGTSASLAISGLRSEDEADYYCATWDDSLSGWVFGTGTKLTVL
modifications: Synthetic Antibody
notes: also as scFv in CAR
Take B4: in assay [1], the “koff … with 0 µM MTX” value was found to be 0.011 s⁻¹; the “kon … with 0 µM MTX” value was found to be 61000 M⁻¹ s⁻¹; the Kd is greater than 9.41 µM.

B5: P05_A11: anti-EGFR clone with conditional affinity; VH SEQ ID NO: 133, VL SEQ ID NO: 134; also as scFv in CAR (antibody, V domains shown)
VH: QVQLVESGGGLVQAGGSLRLSCAASRRSSRSWAMHWVRQAPGKGLEWVAVISYDGRLKYYADSVKGRFTISRDNAEYLVYLQMNSLRAEDTAVYYCAASDDADIFDDYSYGAMDYWGQGTLVTVSS
VL: QSVLTQPPSASGTPGQRVTISCSGSSSNIGRNYVYWYQQLPGTAPKLLIYMTSQRPSGVPDRFSGSKSGTSASLAISGLRSEDEADYYCASWDDNLRAWVFGTGTKLTVL
modifications: Synthetic Antibody
notes: also as scFv in CAR
Turning to B5, in assay [1], the “koff … with 0 µM MTX” value is 0.028 s⁻¹; the “kon … with 0 µM MTX” value amounted to 120000 M⁻¹ s⁻¹; the “koff … with 10 µM MTX” value amounted to 0.05 s⁻¹; the “kon … with 10 µM MTX” value turned out to be 87000 M⁻¹ s⁻¹.

B6: P02_D08: anti-CD33 clone with conditional affinity; VH SEQ ID NO: 13, VL SEQ ID NO: 14 (antibody, V domains shown)
VH: QVQLVESGGGLVQAGGSLRLSCAASRRSSRSWAMHWVRQAPGKGLEWVAVISYDGRLKYYADSVKGRFTISRDNAEYLVYLQMNSLRAEDTAVYYCAAERGDGLDGNVGLDIWGQGTLVTVSS
VL: DIQMTQSPSSLSASVGDRVTITCRASQSISKYLNWYQQKPGKAPKLLIYGASTLQSGVPSRFSGSGSGTDFTLTISSLQPEDFATYYCQQSYSSGTFGQGTKVEIK
modifications: Synthtic Antibody; Synthetic Antibody
Regarding B6, in the assay with human CD33 (scFv-Fc), the “koff … with 0 µM MTX” value turned out to be 0.0061 s⁻¹ and the “kon … with 0 µM MTX” value worked out at 61000 M⁻¹ s⁻¹. For the same molecule, in the assay with human CD33 (10 µM MTX, scFv-Fc), the “koff … with 10 µM MTX” value was 0.062 s⁻¹ and the “kon … with 10 µM MTX” value was 88000 M⁻¹ s⁻¹.

B7: P02_E11: anti-CD33 clone with conditional affinity; VH SEQ ID NO: 15, VL SEQ ID NO: 16; also as scFv in CAR (antibody, V domains shown)
VH: QVQLVESGGGLVQAGGSLRLSCAASRRSSRSWAMHWVRQAPGKGLEWVAVISYDGRLKYYADSVKGRFTISRDNAEYLVYLQMNSLRAEDTAVYYCAAEASTDNGLDYWGQGTLVTVSS
VL: DIQMTQSPSSLSASVGDRVTITCRASQTISRHLNWYQQKPGKAPKLLIYSASSLASGVPSRFSGSGSGTDFTLTISSLQPEDFATYYCQQSHSAGTFGQGTKVEIK
modifications: Synthetic Antibody
notes: also as scFv in CAR
Take B7: in the assay with human CD33 (scFv-Fc), the “koff … with 0 µM MTX” value came to 0.0038 s⁻¹ and the “kon … with 0 µM MTX” value came out at 58000 M⁻¹ s⁻¹.

B8: P03_G12: anti-CD33 clone with conditional affinity; VH SEQ ID NO: 21, VL SEQ ID NO: 22 (antibody, V domains shown)
VH: QVQLVESGGGLVQAGGSLRLSCAASRRSSRSWAMHWVRQAPGKGLEWVAVISYDGRLKYYADSVKGRFTISRDNAEYLVYLQMNSLRAEDTAVYYCAADPTEGWSYLDYWGQGTLVTVSS
VL: DIQMTQSPSSLSASVGDRVTITCRASQGISSYLNWYQQKPGKAPKLLIYGASRLQSGVPSRFSGSGSGTDFTLTISSLQPEDFATYYCQQGYSSGTFGQGTKVEIK
modifications: Synthetic Antibody
On to B8, for which, in the assay with human CD33 (scFv-Fc), the “koff … with 0 µM MTX” value came to 0.0094 s⁻¹ and the “kon … with 0 µM MTX” value came to 71000 M⁻¹ s⁻¹. In addition, the Kd at human CD33 (10 µM MTX, koff/kon, or estimated from binding response / limit of detection for weak interactions, read-out: KD, kinetics toward antigen with 10 µM MTX) was greater than 10.9 µM.

B9: P02_H01: anti-CD33 clone with conditional affinity; VH SEQ ID NO: 17, VL SEQ ID NO: 18 (antibody, V domains shown)
VH: QVQLVESGGGLVQAGGSLRLSCAASRRSSRSWAMHWVRQAPGKGLEWVAVISYDGRLKYYADSVKGRFTISRDNAEYLVYLQMNSLRAEDTAVYYCAAGSGGGDGLDVWGQGTLVTVSS
VL: DIQMTQSPSSLSASVGDRVTITCRASQTISSYLNWYQQKPGKAPKLLIYSSSTLQGGVPSRFSGSGSGTDFTLTISSLQPEDFATYYCQQSYSSGTFGQGTKVEIK
modifications: Synthetic Antibody
In the case of B9, in the assay on human CD33 (scFv-Fc), the “koff … with 0 µM MTX” value worked out at 0.037 s⁻¹ and the “kon … with 0 µM MTX” value is 28000 M⁻¹ s⁻¹.

The values are drawn from patent US20230192839A1, “ANTIBODIES HAVING CONDITIONAL AFFINITY AND METHODS OF USE THEREOF” (PFIZER INC., priority 2017, published 2023).
